In US20080233589A1 (WASHINGTON UNIVERSITY IN ST LOUIS, published 2008):
Residue numbers refer to the chain shown, from its start. Names and notes keep the numbering of the source.

B1: FRB domain of human mTOR (residues 2024-2113) fused through a flexible Gly/Ser linker to an N-terminal luciferase fragment (other)
chain: HEMWHEGLEEASRLYFGERNVKGMFEVLEPLHAMMERGPQTLKETSFNQAYGRDLMEAQEWCRKYMKSGNVKDLTQAWDLYYHVFRRISK
notes: range 2024-2113; Stands for the set of FRB-NLuc fusions (GN, RN, FN) expressed in HEK293T cells; also called FRP; FRB-NLuc; not shown: flexible Gly/Ser linker with multiple cloning site; N-terminal luciferase fragment; differs between the pairs pooled in the result (click beetle green or red residues 2-413)
B2: FRB mutant S2035I fused to an N-terminal luciferase fragment (other)
chain: B1 chain with S12I
notes: range 2024-2113; also called ΔF; mutant S20351 FRB; not shown: flexible Gly/Ser linker with multiple cloning site; N-terminal luciferase fragment of the 'native split luciferase pairs'

Columns and labels:
[1] = target: T1, human FKBP-12 fused through a flexible Gly/Ser linker to a C-terminal luciferase fragment (human, UniProt P62942 2-108); experiment: cell-based or functional assay
T1 sequence (P62942 2-108): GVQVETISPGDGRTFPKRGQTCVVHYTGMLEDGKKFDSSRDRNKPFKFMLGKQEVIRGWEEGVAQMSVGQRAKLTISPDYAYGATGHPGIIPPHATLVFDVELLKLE

[2] = target: T1, human FKBP-12 fused through a flexible …; experiment: split luciferase complementation in live HEK293T cells, rapamycin titrated for 8 h; all productive click beetle green or red fragment pairs (apparent Kd on the rapamycin concentration)
Description: The experiments were set up in a 96 well plate format. Each well was transfected with 75 ng DNA, 225 nL Fugene6, and 10,000 cells in DMEM and heat-inactivated FBS. The cells were allowed to incubate for 48 hours. […] After 8 hours, images were taken using the Xenogen IVIS 100 optical imager. The cells were imaged in MEBSS supplemented with 1% serum and 150 μg/mL of D-luciferin. The plates were incubated at 37° C. for 10 minutes and then imaged. One minute images were taken at all available filters with a FOV C and binning of 4. Experimental DNA was prepared in molar equivalent ratios to ensure equal parts intact protein and recombined heteroprotein fragments of the various split luciferases.

[3] = target: T1, human FKBP-12 fused through a flexible …; experiment: split luciferase complementation in HEK293T cells, fold induction by rapamycin (FIG. 7)

| Binder | Ki for FK506 inhibition of rapamycin-induced FRB and FKBP binding (luciferase complementation, 10 nM rapamycin) [1] [nM] | Kd [2] [nM] | binding result [3] |
| --- | --- | --- | --- |
| B1 | 1.57 | 0.25 | – |
| B2 | – | – | no binding |
